Measurements: patent publication US20200102347A1 (AUCTUS BIOLOGIES, published 2020)
No end group written: not given here. *: point of attachment. RhodamineB = CCN(CC)c1ccc2c(-c3ccccc3C(=O)*)c3ccc(=[N+](CC)CC)cc-3oc2c1

T1: NativeRPtag(large)_with_Tags_and_Cys (Thermoanaerobacter tengcongensis)
T1 construct: Unlabeled in anisotropy assays; coupled through the engineered N-terminal Cys to SulfoLink agarose or maleimide plates in column, pull-down and ELISA assays
T1 chain: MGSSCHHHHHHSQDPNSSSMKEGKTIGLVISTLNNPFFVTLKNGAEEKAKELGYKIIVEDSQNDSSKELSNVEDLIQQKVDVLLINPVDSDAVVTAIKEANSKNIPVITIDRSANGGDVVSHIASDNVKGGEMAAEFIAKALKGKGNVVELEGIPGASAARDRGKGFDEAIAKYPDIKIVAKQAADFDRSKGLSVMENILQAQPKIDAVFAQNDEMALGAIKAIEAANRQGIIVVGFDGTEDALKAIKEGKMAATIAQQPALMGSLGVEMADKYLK


Assays:
[1] = molecular target: T1, NativeRPtag(large)_with_Tags_and_Cys; assay: fluorescence anisotropy, competitor chase
[2] = molecular target: T1, NativeRPtag(large)_with_Tags_and_Cys; assay: fluorescence anisotropy
[3] = molecular target: T1, NativeRPtag(large)_with_Tags_and_Cys; assay: calculated from koff and Kd
[4] = molecular target: T1, NativeRPtag(large)_with_Tags_and_Cys; assay: fluorescence anisotropy, association kinetics

Molecule	koff [1] [s⁻¹]	Kd [2] [nM]	kon [3] [M⁻¹ s⁻¹]	Keq (S-S*) [4]	kf (S to S*) [4] [min⁻¹]	kr (S* to S) [4] [min⁻¹]
RPtag(small) Nd2, k3a, e18a (peptide)	0.000533	0.88	433000	–	–	–
RhodamineB-KLITKENVQ [RPtag(small) Nd12]	> 0.0333	520	–	–	–	–
RhodamineB-GEKIPNFIPAELKLI [RPtag(small) Cd6]	> 0.0333	200	–	–	–	–
RhodamineB-IPNFIPAELKLITKENVQ [RPtag(small) Nd3]	0.0002	0.14	1.47e+06	–	–	–
RhodamineB-GAKIPNFIPAELKLITKENVQ [RPtag(small) e2a]	8.83e-05	0.1	850000	1.9	0.084	0.044
RhodamineB-GEKIPNFIPAEAKLITKENVQ [RPtag(small) l12a]	0.00333	4.7	717000	1.1	0.089	0.081
RhodamineB-GEKAPNFIPAELKLITKENVQ [RPtag(small) i4a]	0.0001	0.26	400000	0.9	0.086	0.098
RhodamineB-GEKIPNFIPAELKLITAENVQ [RPtag(small) k17a]	9.5e-05	0.54	167000	–	–	–
RhodamineB-GEKIPNFAPAELKLITKENVQ [RPtag(small) i8a]	0.0015	1.1	1.43e+06	0.8	0.078	0.046
RhodamineB-GEKIPNFIPAELKLITKANVQ [RPtag(small) e18a]	0.000145	0.056	2.67e+06	1.1	0.054	0.048
RhodamineB-GEKIPNFIPAELKLATKENVQ [RPtag(small) i15a]	0.0183	4.5	4.17e+06	1.4	0.077	0.053
RhodamineB-GEKIPNAIPAELKLITKENVQ [RPtag(small) f7a]	0.00105	2	517000	2.2	0.08	0.036
RhodamineB-GEKIPNFIPAELKLITKENVA (built here from the native peptide with the stated change) [RPtag(small) q21a]	5.67e-05	0.1	583000	0.8	0.087	0.11
RhodamineB-GEKIPAFIPAELKLITKENVQ [RPtag(small) n6a]	2.5e-05	0.34	75000	1.3	0.082	0.068
RhodamineB-GEKIPNFIPAALKLITKENVQ [RPtag(small) e11a]	0.000112	0.8	76700	1.9	0.08	0.042
RhodamineB-GEKIPNFIAAELKLITKENVQ [RPtag(small) p9a]	4e-05	0.18	233000	2.7	0.092	0.04
RhodamineB-GEKIPNFIPAELKAITKENVQ [RPtag(small) l14a]	> 0.0333	8.9	–	1.8	0.075	0.044
RhodamineB-GEAIPNFIPAELKLITKENVQ [RPtag(small) k3a]	8.83e-05	0.49	183000	–	–	–
RhodamineB-IANFIPAELKLITKANVQ [RPtag(small) Nd3, p5a, e18a]	0.000967	0.63	1.53e+06	–	–	–
RhodamineB-ELKLIT [RPtag(small) Nd10, Cd5]	> 0.0333	250	–	–	–	–
RhodamineB-ELKLITKENVQ [RPtag(small) Nd10]	0.00417	5.9	717000	–	–	–

Molecule	koff [1] [s⁻¹]	Kd [2] [nM]	kon [3] [M⁻¹ s⁻¹]	Keq (S-S*) [4]	kf (S to S*) [4] [min⁻¹]	kr (S* to S) [4] [min⁻¹]
RhodamineB-PAELKLITKENVQ [RPtag(small) Nd8]	0.000917	0.59	1.55e+06	–	–	–
RhodamineB-PAELKLITKE [RPtag(small) Nd8, Cd3]	> 0.0333	11	–	6.5	0.095	0.015
RhodamineB-PAELKLITKA [RPtag(small) Nd8, Cd3, e18a]	> 0.0333	13	–	–	–	–
RhodamineB-PNFIPAELKLITKENVQ [RPtag(small) Nd4]	0.000467	0.3	1.57e+06	–	–	–
RhodamineB-FIPAELKLITKENVQ [RPtag(small) Nd6]	0.00108	0.54	2e+06	–	–	–
RhodamineB-LITKENVQ [RPtag(small) Nd13]	> 0.0333	84000	–	–	–	–
RhodamineB-LKLITKENVQ [RPtag(small) Nd11]	0.02	16	1.18e+06	–	–	–
RhodamineB-ELKLITKE [RPtag(small) Nd10, Cd3]	> 0.0333	57	–	–	0.32	0.05
RhodamineB-ELKLITKA [RPtag(small) Nd10, Cd3, e18a]	> 0.0333	71	–	–	–	–
RhodamineB-NFIPAELKLITKENVQ [RPtag(small) Nd5]	0.000933	0.59	1.6e+06	–	–	–
RhodamineB-AIANFIPAELKLITKENVQ [RPtag(small) Nd2, k3a, p5a]	0.00015	0.55	400000	–	–	–
RhodamineB-GEKIPNFIPAELKL [RPtag(small) Cd7]	> 0.0333	30000	–	–	–	–
RhodamineB-FIPAELKLITKE [RPtag(small) Nd6, Cd3]	> 0.0333	7.3	–	–	–	–
RhodamineB-FIPAELKLITKA [RPtag(small) Nd6, Cd3, e18a]	> 0.0333	8.2	–	–	–	–
RhodamineB-GEKIPNFIPAELKLIT [RPtag(small) Cd5]	0.0065	3.6	1.83e+06	–	–	–
RhodamineB-IPAELKLITKENVQ [RPtag(small) Nd7]	0.0007	2.4	300000	–	–	–
RhodamineB-FIPAELKLITK [RPtag(small) Nd6, Cd4]	> 0.0333	9.9	–	–	–	–
RhodamineB-AELKLITKENVQ [RPtag(small) Nd9]	0.00667	4.9	1.37e+06	–	–	–
RhodamineB-KIPNFIPAELKLITKANVQ [RPtag(small) Nd2, e18a]	0.000138	0.13	1.08e+06	0.4	0.044	0.13
RhodamineB-KIPNFIPAELKLITKENVQ [RPtag(small) Nd2]	5.83e-05	0.067	883000	0.7	0.063	0.086
RhodamineB-RIANFIPAELKLITKANVQ [RPtag(small) Nd2, k3r, p5a, e18a]	0.000217	0.26	567000	–	–	–
